Assay results reported in patent US20250250328A1.

Assays:
Test in all cases: cell-based or functional assay
[1] = biological target: HIV-2 envelope HIV-2-ATM88 (HIV-2)
[2] = biological target: a different panel of HIV-1 envelopes from bNAb1-resistant strains
[3] = biological target: HIV-1 envelope X2088.C9 (HIV-1)
[4] = biological target: HIV-1 envelope CC1/85 (HIV-1)
[5] = biological target: HIV-1 envelope T278.50 (HIV-1)
[6] = biological target: HIV-1 envelope ZM106.9 (HIV-1)
[7] = biological target: HIV-1 envelope 42368 (HIV-1)
[8] = biological target: HIV-1 envelope of laboratory strain NL4-3 (HIV-1)
[9] = biological target: HIV-1 envelope NL4-3 (HIV-1)
[10] = biological target: HIV-2 envelope HIV-2-HCC-01 (HIV-2)
[11] = biological target: HIV-1 envelope CAP45.2.00.G3 (HIV-1)
[12] = biological target: HIV-1 envelope CH119 (HIV-1)
[13] = biological target: HIV-1 envelope TRO11 (HIV-1)
[14] = biological target: HIV-1 envelope CNE55 (HIV-1)
[15] = biological target: HIV-1 envelope CNE8 (HIV-1)
[16] = biological target: HIV-1 envelope JRFL (HIV-1)
[17] = biological target: HIV-1 envelope 246F3 (HIV-1)
[18] = biological target: HIV-1 envelope BJOX2000 (HIV-1)
[19] = biological target: HIV-1 envelope 25710 (HIV-1)
[20] = biological target: HIV-1 envelope X2278 (HIV-1)
[21] = biological target: HIV-1 envelope JR-CSF (HIV-1)
[22] = biological target: HIV-1 envelope CE0217 (HIV-1)
[23] = biological target: HIV-1 envelope CE1176 (HIV-1)
[24] = biological target: HIV-1 envelope X1632_S2_B10 (HIV-1)
[25] = biological target: HIV-1 envelope 398F1 (HIV-1)
[26] = biological target: HIV-1 envelope 3637_V5_C3 (HIV-1)
[27] = biological target: HIV-1 envelope 3468_V1_C12 (HIV-1)
[28] = biological target: HIV-1 envelope Q461_E2 (HIV-1)
[29] = biological target: HIV-1 envelope 3326_V4_C3 (HIV-1)

B1: bNAb1 (antibody, V domains shown)
VH: QPQLQESGPTLVEASETLSLTCAVSGDSTAACNSFWGWVRQPPGKGLEWVGSLSHCASYWNRGWTYHNPSLKSRLTLALDTPKNLVFLKLNSVTAADTATYYCARFGGEVLRYTDWPKPAWVDLWGRGTLVTVSS
VL: QSALTQPPSASGSPGQSITISCTGTSNNFVSWYQQHAGKAPKLVIYDVNKRPSGVPDRFSGSKSGNTASLTVSGLQTDDEAVYYCGSLVGNWDVIFGGGTKLTVLG
IC50, PSV assay [1]: > 500 nM
geometric mean IC50, PSV assay (ACTOne), FIG. 4B [2]: > 10 nM
IC50 (nM), PSV assay (ACTOne cells) [3]: 402 nM
IC50 (nM), PSV assay (ACTOne cells) [4]: 0.03 nM
IC50 (nM), PSV assay (ACTOne cells) [5]: 0.17 nM
IC50 (nM), PSV assay (ACTOne cells) [6]: 0.07 nM
IC50 (nM), PSV assay (ACTOne cells) [7]: > 500 nM
EC50 (replicating virus assay) [8]: > 500 nM
IC50 (nM), PSV assay (ACTOne cells) [9]: 131 nM
IC50, PSV assay [10]: > 500 nM
IC50 (nM), PSV assay (ACTOne cells) [11]: > 500 nM

B2: bNAb5 (antibody, V domains shown)
VH: QLQMQESGPGLVKPSETLSLSCTVSGDSIRGGEWGDKDYHWGWVRHSAGKGLEWIGSIHWRGTTHYKESLRRRVSMSIDTSRNWFSLRLASVTAADTAVYFCARHRHHDVFMLVPIAGWFDVWGPGVQVTVSS
VL: EIVMTQSPDTLSVSPGETVTLSCRASQNINKNLAWYQYKPGQSPRLVIFETYSKIAAFPARFVASGSGTEFTLTINNMQSEDVAVYYCQQYEEWPRTFGQGTKVDIKR
IC50 (nM), PSV assay [12]: 63.5 nM
IC50 (nM), PSV assay [3]: 0.17 nM
IC50 (nM), PSV assay [13]: 0.39 nM
IC50 (nM), PSV assay [4]: > 500 nM
IC50 (nM), PSV assay [5]: 96.1 nM
IC50 (nM), PSV assay [6]: 2.04 nM
IC50 (nM), PSV assay [7]: > 500 nM
IC50 (nM), PSV assay [14]: 3300 nM
IC50 (nM), PSV assay [9]: 2.62 nM
IC50 (nM), PSV assay [15]: 51.4 nM
IC50 (nM), PSV assay [16]: 58.2 nM
IC50 (nM), PSV assay [17]: 40.9 nM
IC50 (nM), PSV assay [18]: 127 nM
IC50 (nM), PSV assay [19]: 8.1 nM
IC50 (nM), PSV assay [20]: 9.53 nM
IC50 (nM), PSV assay [11]: > 500 nM
IC50 (nM), PSV assay [21]: 0.64 nM
IC50 (nM), PSV assay [22]: 410 nM
IC50 (nM), PSV assay [23]: 57.1 nM
IC50 (nM), PSV assay [24]: > 500 nM
IC50 (nM), PSV assay [25]: 1.83 nM

B3: bNAb3 (antibody, V domains shown)
VH: QVQLRESGPGLVKPSETLSLSCTVSNDSRPSDHSWTWVRQSPGKALEWIGDIHYNGATTYNPSLRSRVRIELDQSIPRFSLKMTSMTAADTGMYYCARNAIRIYGVVALGEWFHYGMDVWGQGTAVTVSS
VL: SSELTQPPSVSVSPGQTARITCSGAPLTSRFTYWYRQKPGQAPVLIISRSSQRSSGWSGRFSASWSGTTVTLTIRGVQADDEADYYCQSSDTSDSYKMFGGGTKLTVLG
IC50 (nM), PSV assay (ACTOne cells) [3]: 0.03 nM
IC50 (nM), PSV assay (ACTOne cells) [4]: 38.3 nM
IC50 (nM), PSV assay (ACTOne cells) [5]: 0.01 nM
IC50 (nM), PSV assay (ACTOne cells) [6]: 0.03 nM
IC50 (nM), PSV assay (ACTOne cells) [7]: > 500 nM
IC50 (nM), PSV assay (ACTOne cells) [9]: 0.15 nM
IC50 (nM), PSV assay (ACTOne cells) [11]: > 500 nM

B4: bNAb16 (antibody, V domains shown)
VH: EVQLVESGGGLVKPGGSLRLTCVASGFTFSDVWLNWVRQAPGKGLEWVGRIKSRTDGGTTDYAASVKGRFTISRDDSKNTLYLQMNSLKTEDTAVYSCTTDGFIMIRGVSEDYYYYYMDVWGKGTTVTVSS
VL: QSVLTQPPSVSAAPGQKVTISCSGSSSNIGNNYVLWYQQFPGTAPKLLIYGNNKRPSGIPDRFSGSKSGTSATLGITGLQTGDEADYFCATWDSGLSADWVFGGGTKLTVLG
IC50, PSV assay [3]: 289 nM
IC50, PSV assay [6]: > 500 nM
IC50, PSV assay [7]: > 500 nM
IC50, PSV assay [26]: > 500 nM
IC50, PSV assay [27]: > 500 nM
IC50, PSV assay [28]: > 500 nM
IC50, PSV assay [29]: > 500 nM

B5: bNAb14 (antibody, V domains shown)
VH: QLQLQESGPGLVKPSETLSLTCTVSGGSMRGTDWGENDFHYGWIRQSSAKGLEWIGSIHWRGRTTHYKTSFRSRATLSIDTSNNRFSLTFSFVTAADTAVYYCARHKYHDIFRVVPVAGWFDPWGQGLLVTVSS
VL: EIVMTQSPPTLSVSPGETATLSCRASQNVKNNLAWYQLKPGQAPRLLIFDASSRAGGIPDRFSGSGYGTDFTLTVNSVQSEDFGDYFCQQYEEWPRTFGQGTKVDIKR
IC50, PSV assay [3]: 2.79 nM
IC50, PSV assay [6]: 1.26 nM
IC50, PSV assay [7]: > 500 nM
IC50, PSV assay [26]: > 500 nM
IC50, PSV assay [27]: > 500 nM
IC50, PSV assay [28]: > 500 nM
IC50, PSV assay [29]: > 500 nM

B6: bNAb23 (antibody, V domains shown)
VH: QVQLLESGPGLVRPSETLTLTCSVFNSRVSGYYYSWIRQPPGRGLEWIASTHFSLRPSRNPSLLSRVTTSIDTERYQVFLNMRSVTAADTAVYFCARGDASGWRADYFPHWGQGTLVVVSS
VL: QSVLTQPPSASGSPGQSVTISCTGTSSDIGASDYVSWYQQYPGEAPKVIIYDVTKRPSGVPDRFSGSKSGTTASLTVSGLQAEDEADYYCSSDAGRHTLLFGGGTKVTVLG
IC50, PSV assay [3]: > 500 nM
IC50, PSV assay [6]: 17.4 nM
IC50, PSV assay [7]: > 500 nM
IC50, PSV assay [26]: > 500 nM
IC50, PSV assay [27]: > 500 nM
IC50, PSV assay [28]: > 500 nM
IC50, PSV assay [29]: 15.3 nM

B7: bNAb15 (antibody, V domains shown)
VH: EVHLEESGPGLVRPSETLSLTCTASGGSIRGGEWGDSDYHWGWVRHSPEKGLEWIGSIHWRGTTHYNAPFRGRGRLSIDLSRNQFSLRLTSVTAEDTAVYYCVKHKYHDIVMVVPIAGWFDPWGQGLQVTVSS
VL: EIMMTQSPAILSVSPGDRATLSCRASQSVKNNLAWYQKRPGQAPRLLIFDTSSRASGIPARFSGGGSGTEFTLTVNSMQSEDFATYYCQQYEEWPRTFGQGTKVEIKR
IC50, PSV assay [3]: 2.58 nM
IC50, PSV assay [6]: 1.34 nM
IC50, PSV assay [7]: > 500 nM
IC50, PSV assay [26]: 5 nM
IC50, PSV assay [27]: > 500 nM
IC50, PSV assay [28]: > 500 nM
IC50, PSV assay [29]: > 500 nM

B8: bNAb19 (antibody, V domains shown)
VH: EVQLVESGGGLVKAGGSLILSCGVSNFRISAHTMNWVRRVPGGGLEWVASISTSSTYRDYADAVKGRFTVSRDDLEDFVYLQMHKMRVEDTAIYYCARKGSDRLSDNDPFDAWGPGTVVTVSP
VL: DVVMTQSPSTLSASVGDTITITCRASQSIETWLAWYQQKPGKAPKLLIYKASTLKTGVPSRFSGSGSGTEFTLTISGLQFDDFATYHCQHYAGYSATFGQGTRVEIKR
IC50, PSV assay [3]: > 300 nM
IC50, PSV assay [6]: > 300 nM
IC50, PSV assay [7]: > 300 nM
IC50, PSV assay [26]: > 300 nM
IC50, PSV assay [27]: > 300 nM
IC50, PSV assay [28]: > 300 nM
IC50, PSV assay [29]: > 300 nM

B9: bNAb18 (antibody, V domains shown)
VH: QVQLVQSGAEVRKPGSSVTISCKPVGGTFTNFAIHWVRQAPGQGLEWVGGRVPVVGIYKYGKKFHDRLRLYEDDPMKTVFLELRSLTSDDTGVYYCTRWRGCGMCPYDTSSYYNDASDVWGPGTKVIVSA
VL: EIVLTQSPVTLSLSSGETGTLSCRASQNISSSWIAWYQQRRGQVPRLLISAASARAAGIPDRFTGRGSGTDFTLTITRLEPEDFGVYSCQYYGGSFFTFGPGTQVDVKR
IC50, PSV assay [3]: 0.2 nM
IC50, PSV assay [6]: 0.11 nM
IC50, PSV assay [7]: > 500 nM
IC50, PSV assay [26]: > 500 nM
IC50, PSV assay [27]: > 500 nM
IC50, PSV assay [28]: > 500 nM
IC50, PSV assay [29]: > 500 nM
